Experimental data taken from paper PMC9507364, “Tuning the Size of Large Dense‐Core Vesicles and Quantal Neurotransmitter Release via Secretogranin II Liquid–Liquid Phase Separation” (Advanced Science, 2022).

B1: Secretogranin III (SgIII) (natural protein)
chain: not shown
notes: source: HEK293S cells, BacMam baculovirus; purified
B2: secretogranin II (SgII), His-mCherry tag removed (natural protein, mouse, UniProt Q03517 31-617, looked up)
chain: QRNQLLQKEPDLRLENVQKFPSPEMIRALEYIEKLRQQAHREESSPDYNPYQGVSVPLQLKENGEESHLAESSRDALSEDEWMRIILEALRQAENEPPSAPKENKPYALNLEKNFPVDTPDDYETQQWPERKLKHMRFPLMYEENSRENPFKRTNEIVEEQYTPQSLATLESVFQELGKLTGPSNQKRERVDEEQKLYTDDEDDVYKTNNIAYEDVVGGEDWSPIEEKIETQTQEEVRDSKENTEKNEQINEEMKRSGQLGLPDEENRRESKDQLSEDASKVITYLRRLVNAVGSGRSQSGPNGDRAARLLQKPLDSQSIYQLIEISRNLQIPPEDLIEMLKAGEKPNGLVEPEQDLELAVDLDDIPEADLDRPDMFQSKMLSKGGYPKAPGRGMVEALPDGLSVEDILNVLGMENVVNQKSPYFPNQYSQDKALMRLPYGPGKSRANQIPKVAWIPDVESRQAPYENLNDQELGEYLARMLVKYPELLNTNQLKRVPSPVSSEDDLQEEEQLEQAIKEHLGPGSSQEMERLAKVSKRIPVGSLKNEDTPNRQYLDEDMLLKVLEYLNQEQAEQGREHLAKRAMENM
notes: signal peptide in the construct; residues 1-617 (total of 617 amino acids; 1-30 is the signal peptide); Non-tagged proteins were made by cutting off His-mCherry with PreScission protease; The SPR methods say only 'Purified SgII', without the state of the tag; also called CgC; SgII_(1–617); source: HEK293S cells, BacMam baculovirus; purified (Ni-NTA, PreScission protease, Superose 6 Increase); not …
B3: mCherry-tagged SgII (SgII-mCherry) (natural protein, mouse, UniProt Q03517 31-617, looked up)
chain: B2 chain
notes: signal peptide in the construct; residues 1-617 (total of 617 amino acids; 1-30 is the signal peptide); also called SgII_(1–617) tagged with mCherry; source: HEK293S cells, BacMam baculovirus; purified (Ni-NTA, Superose 6 Increase); not shown: mCherry, C-terminal, kept

Legend:
[1] = target: B2; experiment: SPR; Biacore T200, 25 °C; purified SgII immobilised on a CM5 chip by amine coupling; SgIII injected as analyte, 2 to 1000 nM in twofold dilutions; 25 mM Tris pH 7.5, 150 mM NaCl, 0.05% P20; dissociation constant calculated in affinity mode; conditions: both partners purified
[2] = target: the molecule itself; experiment: SEC; Superose 6 Increase 10/300 GL; 25 mM Tris pH 7.5, 500 mM NaCl; self-association

Binder	Kd [1] [nM]	binding result [2]
B1	21.4	
B2		binds
B3		binds
